# Assay results as given in the RNAGym collection of RNA variant scans (doi:10.7554/elife.80360).
# B1: CPEB3 Ribozyme (parent)
# chain: GGGGGCCACAGCAGAAGCGUUCACGUCGCGGCCCCUGUCAGAUUCUGGUGAAUCUGCGAAUUCUGCUGU
# Variants of: B1
# Assay: self-cleavage, relative activity (ratio to wild type); higher = more cleavage; co-transcriptional
row,Variant,self-cleavage
1,GGGGGUCACAGCAGAAGCGUUCACGUCGCGGCCCCAGUCAGAUUCUGGUGAAUCUGCGAAUUCUGCUGU [C6U U36A],0.221
2,GGGGGUCACAGCAGAAGCGUUCACGUCGCGGCCCCGGUCAGAUUCUGGUGAAUCUGCGAAUUCUGCUGU [C6U U36G],0.127
3,GGGGGUCACAGCAGAAGCGUUCACGUCGCGGCCCCUGUCAGAUUCUGGUGAAUCUUCGAAUUCUGCUGU [C6U G56U],0.968
4,GGGGGUCACAGCAGAAGCGUUCACGUCGCGGCCCCUGUCAGAUUCUGGUGAAUCUCCGAAUUCUGCUGU [C6U G56C],0.772
5,GGGGGUCACAGCAGAAGCGUUCACGUCGCGGCCCCUGUCAGAUUCUGGUGAAUCUGCGAAUUCUGCUGA [C6U U69A],1.05
6,GGGGGUCACAGCAGAAGCGUUCACGUCGCGGCCCCUGUCAGAUUCUGGUGAAUCUGCGAAUUCUGCUGG [C6U U69G],1.04
7,GGGGGCAACAGCAGAAGCGUUCACGUCGCGGCCCCUGUCAGAUUCUGGUGAAUCUGCGAAUUCUGCUGU [C7A],0.643
8,GGGGGUCACAGCAGAAGCGGUCACGUCGCGGCCCCUGUCAGAUUCUGGUGAAUCUGCGAAUUCUGCUGU [C6U U20G],0.174
9,GGGGGCAACAGCAGAAGCGUUCACGUCGCGGCCCCUGUCAGAUUCUGGUGAAUCUGCGUAUUCUGCUGU [C7A A59U],0.157
10,GGGGGCAACAGCAGAAGCGUUCACGUCGCGGCCCCUGUCAGAUUCUGGUGAAUCUGCGGAUUCUGCUGU [C7A A59G],0.469
11,GGGGGUCACAGCAGAAGCGUGCACGUCGCGGCCCCUGUCAGAUUCUGGUGAAUCUGCGAAUUCUGCUGU [C6U U21G],0.329
12,GGGGGUCACAGCAGAAGCGUCCACGUCGCGGCCCCUGUCAGAUUCUGGUGAAUCUGCGAAUUCUGCUGU [C6U U21C],0.827
13,GGGGGUCACAGCAGAAGCGUUCACGUCGCGGCCCCUGUCAGAUUCUGGUGAAUCUGCGAAGUCUGCUGU [C6U U61G],0.809
14,GGGGGUCACAGCAGAAGCGUUCACGUCGCGGCCCCUGUCAGAUUCUGGUGAAUCUGCGAACUCUGCUGU [C6U U61C],0.647
15,GGGGGUCACAGCAGAAGCGUUCACGUCGCGGCCCCUGUCAGAUUCUGGUGAAUCUGCGAAAUCUGCUGU [C6U U61A],0.736
16,GGGGGUCACAGCAGAAGCGUUCACGUCGCGGCCCCUGGCAGAUUCUGGUGAAUCUGCGAAUUCUGCUGU [C6U U38G],0.12
17,GGGGGUCACAGCAGAAGCGUUCACGUCGCGGCCCCUGCCAGAUUCUGGUGAAUCUGCGAAUUCUGCUGU [C6U U38C],0.929
18,GGGGGUCACAGCAGAAGCGUUCACGUCGCGGCCCCUGUCAGAUUCUGGUGAAUCUGCAAAUUCUGCUGU [C6U G58A],0.981
19,GGGGGUCACAGCAGAAGCGUUCACGUCGCGGCCCCUGUCAGAUUCUGGUGAAUCUGCCAAUUCUGCUGU [C6U G58C],0.909
20,GGGGGCAACAGCAGAAGAGUUCACGUCGCGGCCCCUGUCAGAUUCUGGUGAAUCUGCGAAUUCUGCUGU [C7A C18A],0.0823
21,GGGGGUCACAGCAGAAGCGUUCACGUCGCGGCCCCUGUCAGAUUCUGGUGAAUCUGCGAAUUCUCCUGU [C6U G65C],0.636
22,GGGGGUCACAGCAGAAGCGUUCACGUCGCGGCCCCUGUCAGAUUCUGGUGAAUCUGCGAAUUCUUCUGU [C6U G65U],0.719
23,GGGGGCAACCGCAGAAGCGUUCACGUCGCGGCCCCUGUCAGAUUCUGGUGAAUCUGCGAAUUCUGCUGU [C7A A10C],0.76
24,GGGGGCAACGGCAGAAGCGUUCACGUCGCGGCCCCUGUCAGAUUCUGGUGAAUCUGCGAAUUCUGCUGU [C7A A10G],0.865
25,GGGGGUCACAGCAGAAGCGUUCACGUCGCGGCCCCUGUCAGAUUCUGGCGAAUCUGCGAAUUCUGCUGU [C6U U49C],1.02
26,GGGGGCAACAGCAGGAGCGUUCACGUCGCGGCCCCUGUCAGAUUCUGGUGAAUCUGCGAAUUCUGCUGU [C7A A15G],0.457

row,Variant,self-cleavage
1,GGGGGCAACAGCAGCAGCGUUCACGUCGCGGCCCCUGUCAGAUUCUGGUGAAUCUGCGAAUUCUGCUGU [C7A A15C],0.162
2,GGGGGCAACAGCAGAAGCGUUCACGUAGCGGCCCCUGUCAGAUUCUGGUGAAUCUGCGAAUUCUGCUGU [C7A C27A],0.0789
3,GGGGGCAACAGCAGAAGCGUUCACGUGGCGGCCCCUGUCAGAUUCUGGUGAAUCUGCGAAUUCUGCUGU [C7A C27G],0.133
4,GGGGGCAACAGCAGAAGCGUUCACGUUGCGGCCCCUGUCAGAUUCUGGUGAAUCUGCGAAUUCUGCUGU [C7A C27U],0.142
5,GGGGGUCACAGCAGAAGCGUUCACGUCGCGGCCCCUGUCAGAUUCUGGUAAAUCUGCGAAUUCUGCUGU [C6U G50A],0.982
6,GGGGGCAGCAGCAGAAGCGUUCACGUCGCGGCCCCUGUCAGAUUCUGGUGAAUCUGCGAAUUCUGCUGU [C7A A8G],0.8
7,GGGGGCAUCAGCAGAAGCGUUCACGUCGCGGCCCCUGUCAGAUUCUGGUGAAUCUGCGAAUUCUGCUGU [C7A A8U],0.769
8,GGGGGCAACAGCAGAAGCGUUCACGUCGGGGCCCCUGUCAGAUUCUGGUGAAUCUGCGAAUUCUGCUGU [C7A C29G],0.12
9,GGGGGCAACAGCAGAAGCGUUCACGUCGCGGCCCCUGUCAGAUUCUGGUGAAUCUGCGAUUUCUGCUGU [C7A A60U],0.225
10,GGGGGCAACAGCAGAAGCGUUCACGUCGCGGCCCCUGUCAGAUUCUGGUGAAUCUGCGACUUCUGCUGU [C7A A60C],0.152
11,GGGGGCAACAGCAGAAGCGUUCACGUCGCGGCCCCUGUCCGAUUCUGGUGAAUCUGCGAAUUCUGCUGU [C7A A40C],0.15
12,GGGGGCAACAGCAGAAGCGUUCACGUCGCGGCCCCUGUCUGAUUCUGGUGAAUCUGCGAAUUCUGCUGU [C7A A40U],0.147
13,GGGGGCAACAGCAGAAGCGUUCACGUCGCGGCCCCUGUCAGAUUCUGGUGACUCUGCGAAUUCUGCUGU [C7A A52C],0.412
14,GGGGGCAACAGCAGAAGCGUUCACGUCGCGGCCCCUGUCAGAUUCUGGUGAUUCUGCGAAUUCUGCUGU [C7A A52U],0.466
15,GGGGGCAACAGCAGAAGCGUUCGCGUCGCGGCCCCUGUCAGAUUCUGGUGAAUCUGCGAAUUCUGCUGU [C7A A23G],0.421
16,GGGGGCAACAGCAGAAGCGUUCUCGUCGCGGCCCCUGUCAGAUUCUGGUGAAUCUGCGAAUUCUGCUGU [C7A A23U],0.824
17,GGGGGCAAGAGCAGAAGCGUUCACGUCGCGGCCCCUGUCAGAUUCUGGUGAAUCUGCGAAUUCUGCUGU [C7A C9G],0.639
18,GGGGGCAAUAGCAGAAGCGUUCACGUCGCGGCCCCUGUCAGAUUCUGGUGAAUCUGCGAAUUCUGCUGU [C7A C9U],0.934
19,GGGGGCAACAGCAGAUGCGUUCACGUCGCGGCCCCUGUCAGAUUCUGGUGAAUCUGCGAAUUCUGCUGU [C7A A16U],0.222
20,GGGGGCAACAGCGGAAGCGUUCACGUCGCGGCCCCUGUCAGAUUCUGGUGAAUCUGCGAAUUCUGCUGU [C7A A13G],0.598
21,GGGGGCAACAGCUGAAGCGUUCACGUCGCGGCCCCUGUCAGAUUCUGGUGAAUCUGCGAAUUCUGCUGU [C7A A13U],0.274
22,GGGGGUCACAGCAGAAGCGUUCACGUCGCGGCCCCUGUCAGAUUCUGGUGAAUCUGCGAAUUCCGCUGU [C6U U64C],0.829
23,GGGGGUCACAGCAGAAGCGUUCACGUCGCGGCCCCUGUCAGAUUCUGGUGAAUCUGCGAAUUCAGCUGU [C6U U64A],0.853
24,GGGGGUCACAGCAGAAGCGUUCACGUCGCGGCCCCUGUCAGAUUCUGGUGAAUCUGCGAAUUCGGCUGU [C6U U64G],0.92
25,GGGGGCAACAGCAGAAGCGUUCACGUCGCGGCCCCUGUCAGAUUCUGGUGGAUCUGCGAAUUCUGCUGU [C7A A51G],0.514
26,GGGGGCAACAGCAGAAGCGUUCACGUCGCGGCCCCUGUCAGAUUCUGGUGCAUCUGCGAAUUCUGCUGU [C7A A51C],0.477

row,Variant,self-cleavage
1,GGGGGUCACAGCAGAAGCGUUCACGACGCGGCCCCUGUCAGAUUCUGGUGAAUCUGCGAAUUCUGCUGU [C6U U26A],0.833
2,GGGGGUCACAGCAGAAGCGUUCACGCCGCGGCCCCUGUCAGAUUCUGGUGAAUCUGCGAAUUCUGCUGU [C6U U26C],0.893
3,GGGGGUCACAGCAGAAGCGUUCACGUCGCGGCCCCUGUCAGAUUCUGGUGAAUCUGCGAAUGCUGCUGU [C6U U62G],0.783
4,GGGGGUCACAGCAGAAGCGUUCACGUCGCGGCCCCUGUCAGAUUCUGGUGAAUCUGCGAAUACUGCUGU [C6U U62A],0.873
5,GGGGGUCACAGCAGAAGCGUUCACGUCGCGGCCCCUGUCAGAUUCUGGUGAAUCGGCGAAUUCUGCUGU [C6U U55G],0.888
6,GGGGGUCACAGCAGAAGCGUUCACGUCGCGGCCCCUGUCAGAUUCUGGUGAAUCCGCGAAUUCUGCUGU [C6U U55C],0.775
7,GGGGGUCACAGCAGAAGCGUUCACGUCGCGGCCCCUGUCAGAUUCUGGUGAAUCAGCGAAUUCUGCUGU [C6U U55A],0.989
8,GGGGGUCACAGCAGAAGCGUUCACGUCGCGGCCCCUGUCAGAUUCUGGUGAACCUGCGAAUUCUGCUGU [C6U U53C],0.914
9,GGGGGUCACAGCAGAAGCGUUCACGUCGCGGCCCCUGUCAGAUUCUGGUGAAGCUGCGAAUUCUGCUGU [C6U U53G],0.719
10,GGGGGUCACAGCAGAAGCGUUCACGUCGCGGCCCCUGUCAGAUUCUGGUGAAACUGCGAAUUCUGCUGU [C6U U53A],0.977
11,GGGGGUCACAGCAGAAGCGUUCACGUCGCGGCCCCUGUCAGAUUCUGGUGAAUCUGCGAAUUCUGCUAU [C6U G68A],1.03
12,GGGGGUCACAGCAGAAGCGUUCACGUCGCGGCCCCUGUCAGAUUCUGGUGAAUCUGCGAAUUCUGCUCU [C6U G68C],0.999
13,GGGGGUCACAGCAGAAGCGUUCACGUCGCGGCCCCUGUCAGAUUCUGGUGAAUCUGCGAAUUCUGCUUU [C6U G68U],1.02
14,GGGGGCAACAGCAGAAGCGUUGACGUCGCGGCCCCUGUCAGAUUCUGGUGAAUCUGCGAAUUCUGCUGU [C7A C22G],0.0999
15,GGGGGUCACAGCAGAAGCGUUCACGUCGCGGCCCCUGUCAGAUUCGGGUGAAUCUGCGAAUUCUGCUGU [C6U U46G],0.987
16,GGGGGUCACAGCAGAAGCGUUCACGUCGCGGCCCCUGUCAGAUUCAGGUGAAUCUGCGAAUUCUGCUGU [C6U U46A],0.944
17,GGGGGUCACAGCAGAAGCGUUCACGUCGCGGCCCCUGUCAGAUUCCGGUGAAUCUGCGAAUUCUGCUGU [C6U U46C],1
18,GGGGGUCACAGCAGAAGCGUUCACGUCGCGGCCCCUGUCAGAUUCUGGUGAAUCUGCGAAUUCUGCGGU [C6U U67G],0.995
19,GGGGGUCACAGCAGAAGCGUUCACGUCGCGGCCCCUGUCAGAAUCUGGUGAAUCUGCGAAUUCUGCUGU [C6U U43A],0.917
20,GGGGGUCACAGCAGAAGCGUUCACGUCGCGGCCCCUGUCAGAUACUGGUGAAUCUGCGAAUUCUGCUGU [C6U U44A],0.887
21,GGGGGUCACAGCAGAAGCGUUCACGUCGCGGCCCCUGUCAGAUCCUGGUGAAUCUGCGAAUUCUGCUGU [C6U U44C],0.933
22,GGGGGCAACAGAAGAAGCGUUCACGUCGCGGCCCCUGUCAGAUUCUGGUGAAUCUGCGAAUUCUGCUGU [C7A C12A],0.147
23,GGGGGCAACAGGAGAAGCGUUCACGUCGCGGCCCCUGUCAGAUUCUGGUGAAUCUGCGAAUUCUGCUGU [C7A C12G],0.378
24,GGGGGCAACAGCAGAAGCGUUCAUGUCGCGGCCCCUGUCAGAUUCUGGUGAAUCUGCGAAUUCUGCUGU [C7A C24U],0.192
25,GGGGGCAACAGCAGAAGCGUUCAGGUCGCGGCCCCUGUCAGAUUCUGGUGAAUCUGCGAAUUCUGCUGU [C7A C24G],0.0158
26,GGGGGCAACAGCAGAAGCGUUCAAGUCGCGGCCCCUGUCAGAUUCUGGUGAAUCUGCGAAUUCUGCUGU [C7A C24A],0.161
